Results taken from patent US20250099635A1 (Janssen / Centocor, published 2025).

Target: T1, soluble human kallikrein related peptidase 2 (hK2) protein (human, UniProt P20151 19-261)
T1 construct: The stated signal peptide is left out here; also called soluble hK2; KLK2
Assay: SPR; antibody captured by anti-Fc antibody, soluble hK2 injected; 1:1 Langmuir fit
Description: Affinity of selected hK2 antibodies for soluble hK2 was measured by surface plasmon resonance (SPR). […] Antibodies were captured on a sensor chip coated with an anti-Fc antibody followed by injection of soluble hK2 at various concentrations and specified association and dissociation times. Post dissociation, the surface was regenerated with an appropriate solution to prepare for the next interaction. Kinetic information (on-rate and off-rate constants) were extracted by fitting sensorgrams to the 1:1 Langmuir model. Binding affinity (KD) are reported as the ratio of rate constants (koff/kₒₙ).

T1 sequence (P20151 19-261): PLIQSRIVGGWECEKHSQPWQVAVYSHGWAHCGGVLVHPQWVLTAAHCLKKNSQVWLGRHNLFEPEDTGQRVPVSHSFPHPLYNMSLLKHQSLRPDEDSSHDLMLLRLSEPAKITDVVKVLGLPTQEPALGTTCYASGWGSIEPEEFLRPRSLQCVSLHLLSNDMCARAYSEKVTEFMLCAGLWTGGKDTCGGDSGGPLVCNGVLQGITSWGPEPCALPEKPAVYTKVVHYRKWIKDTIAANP

Kd	Binder
0.04 nM	KL2B242 (Fab) (Fab, V domains shown) VH: QVQLQESGPGLVKPSETLSLTCTVSGGSISSYYWSWLRQPAGSGLEWIGRLYVSGFTNYNPSLKSRVTLSLDPSRNQLSLKLSSVTAADTAVYYCAGDSGNYWGWFDPWGQGTLVTVSS VL: SYELTQPPSVSVSPGETASITCSGDQLGENYACWYQQKPGQSPVLVIYQDSKRPSGIPERFSGSNSGNTATLTISGTQALDEADYYCQAWDNSIVVFGGGTKLTVL
0.46 nM	KL2B30 (Fab) (Fab, V domains shown) VH: QVQLQESGPGLVKPSETLSLTCTVSGGSISSYYWSWIRQPPGKGLEWIGYIYYSGSTNYNPSLKSRVTISVDTSKNQFSLKLSSVTAADTAVYYCAGTTIFGVVTPNFYYGMDVWGQGTTVTVSS VL: DIQMTQSPSFLSASVGDRVTITCRASQGISSYLAWYQQKPGKAPKFLIYAASTLQSGVPSRFSGSGSGTEFTLTISSLQPEDFATYYCQQLNSYPLTFGGGTKVEIK
0.08 nM	KL2B53 (Fab) (Fab, V domains shown) VH: EVQLVESGGGVVQPGRSLRLSCVASGFTFSSYDIHWVRQAPGKGLEWVAIISYDGSKKDYTDSVKGRFTISRDNSKNTLYLQMDSLRVEDSAVYSCARESGWSHYYYYGMDVWGQGTMVTVSS VL: DIVMTQSPSSLSASVGDRVTITCRASQDISNYLAWYQQKPGKVPKFLIYAASTLHSGVPSRFSGSGSGTDFTLTISSLQPEDVATYYCQKYNSAPYTFGQGTRLEIK
0.078 nM	KL2B467 (Fab) (Fab, V domains shown) VH: QVQLVESGGGVVQPGRSLRLSCAASGFTFSYYGMHWVRQAPGKGLEWVAFISYDGSNKYYADSVKGRFTISRDNSKNTLYLQMNSLRAEDTAVYYCAHLPYSGSYWAFDYWGQGTQVTVSS VL: QSVLTQPPSVSVAPGQTASITCGGDNIGSKSVHWYQQKPGQAPVLVVYDNSDRPSGIPERFSGSNSGTTATLTISRVEAGDEADYYCQVWDSSSDHPVVFGGGTKVTV
0.053 nM	KL2B494 (Fab) (Fab, V domains shown) VH: QVQLVESGGGLVQPGGSLRLSCAASGFTFSHYAMSWVRQAPGKGLEWVSTIGGSGGSTYYADSVKGRFTISRDNSKNTLYLQMNSLRAEDTAVYYCAKPHIVMVTALLYDGMDVWGQGTMVTVSS VL: SSELTQPPSVSVAPGQTARITCGGNNIGSKSVHWYQQKPGQAPVLVVYDDSDRPSGIPERFSGSNSGNTATLTISRVEAGDEADYYCQVWDSSSDHVVFGGGTKLTVL
